Experiments:
[1] = biological target: P113 N-terminal fragment D106K E107K, biotinylated bait (Plasmodium falciparum (3D7 strain)) (UniProt Q8ILP3); assay: SPR
[2] = biological target: T1, P113 N-terminal fragment (P. falciparum 3D7), purified soluble analyte (Plasmodium falciparum 3D7, stabilised); assay: SPR
T1 chain: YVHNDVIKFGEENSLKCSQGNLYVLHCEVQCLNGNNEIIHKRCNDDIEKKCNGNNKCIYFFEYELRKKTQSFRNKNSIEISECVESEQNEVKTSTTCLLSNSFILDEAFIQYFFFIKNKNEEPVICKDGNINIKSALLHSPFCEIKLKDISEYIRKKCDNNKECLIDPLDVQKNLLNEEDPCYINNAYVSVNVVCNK

Molecule: purified monomeric RH5 protein (from UniProt Q8IFM5 25-526) (natural protein)
- fold reduction in dissociation half-life against wild-type P113 [1]: 2 fold

B1: anti-P113 monoclonal antibody P3.2 (antibody, V domains shown)
VH: QVQLQQPGAELVKPGASVRLSCKASGYTFTSYFMYWVRQRPGQGLQSIGGINPNNGGSNFNERFKTKATLTVDKSSSIAYLQLNSLTSEDSAVYYCTRRGLGYDYGGFAYWGQGTLVTVSA
VL: DIQMTQTTSSLSASLGDRVTISCRASQDISNYLNWYQQKPDGTVKLLIYYTSRLHSGVSSRFSGSGSGTDYSLTIKNLEQEDIATYFCQQVNALPPTFGGGTKLEIK
- Kd [2]: 320 nM

From doi:10.1101/2020.06.12.149534 (bioRxiv, 2020)
